Positions count from the first letter of the chain named. Names may count otherwise. Blank lines part the entries; values can stand above or below the binder they belong to.
Columns and labels:
[1] = target: T1, FcRn-L322A/L323A expressed in HEK293 cells (UniProt P55899 24-365); assay: cell FcRn occupancy, flow cytometry, free FcRn stained with anti-FcRn-Fab AF647, HEK293-FcRn-L322A/L323A cells, with HSA
[2] = target: T1, FcRn-L322A/L323A expressed in HEK293 …; assay: cell FcRn occupancy, flow cytometry, free FcRn stained with anti-FcRn-Fab AF647, HEK293-FcRn-L322A/L323A cells, without HSA
human serum albumin [3] = target: T2, human serum albumin (human, UniProt P02768 25-609); assay: SPR Biacore 3000, HSA on chip, pH 5.5
T2 construct: Immobilised on SPR chips; also added in solution to the cell assays; also called HSA; humanSA

human serum albumin [4] = target: T2, human serum albumin; assay: SPR Biacore 3000, HSA on chip, pH 7.4
human serum albumin [5] = target: T2, human serum albumin; assay: SPR Biacore 3000, HSA on chip, ratio of R0 at pH 5.5 to pH 7.4
human serum albumin [6] = target: T2, human serum albumin; assay: SPR, pH 5.5
human serum albumin [7] = target: T2, human serum albumin; assay: SPR, pH 7.4 and 5.5
human serum albumin [8] = target: T2, human serum albumin; assay: SPR, pH 7.4 (ka and kd N/A)
human serum albumin [9] = target: T2, human serum albumin; assay: SPR, Langmuir 1:1 or steady state model, pH 5.5
human serum albumin [10] = target: T2, human serum albumin; assay: SPR, Langmuir 1:1 or steady state model, pH 7.4 (ka and kd N/A)
[11] = target: T3, neonatal Fc receptor (FcRn), endogenous in U937 cells (UniProt P55899 24-365; P61769 21-119); assay: cell FcRn occupancy, flow cytometry, free FcRn stained with labelled anti-FcRn Fab, U937 cells, 2,500 nM HSA (SD 0.1)
T3 construct: whole, on cells; Free FcRn was stained inside fixed and permeabilised cells
Protocol: (§1) Next, FcRn occupancy was tested using a cell-based FcRn occupancy assay in the presence or absence of albumin. Briefly, test articles (Fc-ABDEG-VHH molecules) were pre-incubated with HSA for 30 minutes at 37° C., pH 7.4 in FACS buffer. Cells (HEK FcRn mut or U937) were plated in a 96-well microplate. Cells were incubated with test article for two hours, shaking at 37° C., pH 7.4 in FACS buffer. Plates were then transferred immediately on ice and cells were collected by centrifugation at 4° C. Cells stained for viability in FACS buffer at pH 6 and then fixed/permeabilized in permeabilization buffer at pH 6. […] Cells were analyzed by FACS, ensuring that they are kept on ice until immediately prior to analysis.

human serum albumin [12] = target: T2, human serum albumin; assay: SPR, pH 7.4
human serum albumin [13] = target: T2, human serum albumin; assay: SPR, pH 5.5; pH 5.5
human serum albumin [14] = target: T2, human serum albumin; assay: SPR, Langmuir 1:1 or steady state model, pH 7.4
human serum albumin [15] = target: T2, human serum albumin; assay: SPR, pH 5.5 (ka and kd N/A)
[16] = target: T3, neonatal Fc receptor (FcRn), endogenous …; assay: cell FcRn occupancy, flow cytometry, free FcRn stained with labelled anti-FcRn Fab, U937 cells, 2,500 nM HSA (SD 0.5)
Protocol: as §1

[17] = target: T3, neonatal Fc receptor (FcRn), endogenous …; assay: cell FcRn occupancy, flow cytometry, free FcRn stained with anti-FcRn-Fab AF647, U937 cells, with HSA
Protocol: as §1

[18] = target: T3, neonatal Fc receptor (FcRn), endogenous …; assay: cell FcRn occupancy, flow cytometry, free FcRn stained with labelled anti-FcRn Fab, U937 cells, 2,500 nM HSA (SD 1.4)
Protocol: as §1

human serum albumin [19] = target: T2, human serum albumin; assay: not stated there (refers to the earlier SPR)

B1: TA-Alb23-Fc-ABDEG (Fc fusion)
chain: EVQLLESGGGLVQPGGSLRLSCAASGFTFRSFGMSWVRQAPGKGPEWVSSISGSGSDTLYADSVKGRFTISRDNSKNTLYLQMNSLRPEDTAVYYCTIGGSLSRSSQGTLVTVSSDKTHTCPPCPAPELLGGPSVFLFPPKPKDTLYITREPEVTCVVVDVSHEDPEVKFNWYVDGVEVHNAKTKPREEQYNSTYRVVSVLTVLHQDWLNGKEYKCKVSNKALPAPIEKTISKAKGQPREPQVYTLPPSRDELTKNQVSLTCLVKGFYPSDIAVEWESNGQPENNYKTTPPVLDSDGSFFLYSKLTVDKSRWQQGNVFSCSVMHEALKFHYTQKSLSLSPG
notes: Alb23 VHH on the N-terminus of both Fc domains; also called two-armed N-terminal anti-HSA-Fc-ABDEG
% max occupancy [1]: 43.4% | IC50 [1]: 78.3 nM | IC50 [2]: 19.9 nM

B2: TA-Fc-ABDEG-2H11 (2H11 parental fused at the C-terminus of Fc-ABDEG) (Fc fusion)
chain: DKTHTCPPCPAPELLGGPSVFLFPPKPKDTLYITREPEVTCVVVDVSHEDPEVKFNWYVDGVEVHNAKTKPREEQYNSTYRVVSVLTVLHQDWLNGKEYKCKVSNKALPAPIEKTISKAKGQPREPQVYTLPPSRDELTKNQVSLTCLVKGFYPSDIAVEWESNGQPENNYKTTPPVLDSDGSFFLYSKLTVDKSRWQQGNVFSCSVMHEALKFHYTQKSLSLSPGGGGGSGGGGSGGGGSGGGGSELQVVESGGGLVQAGGSLRLSCAASGRTFRSNTMGWFRQAPGKEREFVAAITWSGGTTYYADSVKGRFAISGDNAKNTVYLQMNSLKPEDTAVYYCAAEGPKWEPWNGIYHPADFGSWGQGTQVTVSS
R0 pH5.5 (human serum albumin [3]): 351 RU | koff (human serum albumin [3]): 0.00016 s⁻¹ | R0 pH7.4 (human serum albumin [4]): 115 RU | koff (human serum albumin [4]): 0.00072 s⁻¹ | R0 5.5/7.4 (human serum albumin [5]): 3

B3: TA-Fc-ABDEG-2H11-v16 (Fc fusion)
chain: B2 chain with F361A
notes: Scaffold as for m24
R0 pH5.5 (human serum albumin [3]): 8.91 RU | koff (human serum albumin [3]): 0.00301 s⁻¹ | R0 pH7.4 (human serum albumin [4]): 0.571 RU | koff (human serum albumin [4]): 0.00193 s⁻¹ | R0 5.5/7.4 (human serum albumin [5]): 16

B4: TA-Fc-ABDEG-2H11-v15 (Fc fusion)
chain: B2 chain with D360A
R0 pH5.5 (human serum albumin [3]): 235 RU | koff (human serum albumin [3]): 0.00174 s⁻¹ | R0 pH7.4 (human serum albumin [4]): 0.635 RU | koff (human serum albumin [4]): 0.0025 s⁻¹ | R0 5.5/7.4 (human serum albumin [5]): 370

B7: ABDEG-30GS-Alb23-SM (Fc fusion)
chain 1: DKTHTCPPCPAPELLGGPSVFLFPPKPKDTLYITREPEVTCVVVDVSHEDPEVKFNWYVDGVEVHNAKTKPREEQYNSTYRVVSVLTVLHQDWLNGKEYKCKVSNKALPAPIEKTISKAKGQPREPQVYTLPPSRDELTKNQVSLWCLVKGFYPSDIAVEWESNGQPENNYKTTPPVLDSDGSFFLYSKLTVDKSRWQQGNVFSCSVMHEALKFHYTQKSLSLSPGGGGGSGGGGSGGGGSGGGGSGGGGSGGGGSEVQLLESGGGLVQPGGSLRLSCAASGFTFRSAGMSWVRQAPGKGPEWVSSISGSGSDTLYADSVKGRFTISRDNSKNTLYLQMNSLRPEDTAVYYCTIGGSLSRSSQGTLVTVSS
chain 2: DKTHTCPPCPAPELLGGPSVFLFPPKPKDTLYITREPEVTCVVVDVSHEDPEVKFNWYVDGVEVHNAKTKPREEQYNSTYRVVSVLTVLHQDWLNGKEYKCKVSNKALPAPIEKTISKAKGQPREPQVYTLPPSRDELTKNQVSLSCAVKGFYPSDIAVEWESNGQPENNYKTTPPVLDSDGSFFLVSKLTVDKSRWQQGNVFSCSVMHEALKFHYTQKSLSLSPG
notes: also called OA-Fc-ABDEG-30GS-Alb23-F32A; OA-ABDEG-30GS-Alb23-SM
Kd (human serum albumin [6]): 20300 nM | koff (human serum albumin [6]): 0.351 s⁻¹ | kon (human serum albumin [6]): 17300 M⁻¹ s⁻¹ | fold decrease in affinity against OA-Fc-ABDEG-Alb23 (human serum albumin [7]): > 300 fold | Kd (human serum albumin [8]): 49000 nM | Kd (human serum albumin [9]): 20300 nM | koff (human serum albumin [9]): 0.351 s⁻¹ | kon (human serum albumin [9]): 17300 M⁻¹ s⁻¹ | Kd (human serum albumin [10]): 49000 nM | IC50 [11]: 2.1 nM

B8: OA-Fc-ABDEG-Alb23 (Fc fusion)
chain 1: DKTHTCPPCPAPELLGGPSVFLFPPKPKDTLYITREPEVTCVVVDVSHEDPEVKFNWYVDGVEVHNAKTKPREEQYNSTYRVVSVLTVLHQDWLNGKEYKCKVSNKALPAPIEKTISKAKGQPREPQVYTLPPSRDELTKNQVSLWCLVKGFYPSDIAVEWESNGQPENNYKTTPPVLDSDGSFFLYSKLTVDKSRWQQGNVFSCSVMHEALKFHYTQKSLSLSPGGGGGSGGGGSGGGGSGGGGSEVQLLESGGGLVQPGGSLRLSCAASGFTFRSFGMSWVRQAPGKGPEWVSSISGSGSDTLYADSVKGRFTISRDNSKNTLYLQMNSLRPEDTAVYYCTIGGSLSRSSQGTLVTVSS
chain 2: B7 chain 2
notes: also called OA-Fc-ABDEG-20GS-Alb23; ABDEG-20GS-Alb23
Kd (human serum albumin [6]): 66.5 nM | koff (human serum albumin [6]): 0.00186 s⁻¹ | Kd (human serum albumin [12]): 147 nM | koff (human serum albumin [12]): 0.00336 s⁻¹ | kon (human serum albumin [12]): 22900 M⁻¹ s⁻¹ | kon (human serum albumin [13]): 27900 M⁻¹ s⁻¹ | Kd (human serum albumin [9]): 66.5 nM | koff (human serum albumin [9]): 0.00186 s⁻¹ | kon (human serum albumin [9]): 27900 M⁻¹ s⁻¹ | Kd (human serum albumin [14]): 147 nM | koff (human serum albumin [14]): 0.00336 s⁻¹ | kon (human serum albumin [14]): 22900 M⁻¹ s⁻¹ | % max occupancy [1]: 67.9% | IC50 [1]: 11.5 nM | IC50 [2]: 6.4 nM

B10: efgartigimod (human IgG1 Fc fragment with ABDEG mutations) (other)
chain: B7 chain 2 with S146T, A148L, V187Y
notes: residues 1-226 (my count) are the Fc part; also called ARGX-113; efgartigimod alfa
% max occupancy [17]: 56.8% | IC50 [17]: 4.8 nM | IC50 [18]: 2.9 nM | % max occupancy [1]: 57.7% | IC50 [1]: 16.1 nM | IC50 [2]: 6.8 nM

B11: TA-Fc-ABDEG-Alb23 (Fc fusion)
chain: B8 chain 1 with W146T
notes: also called TA-ABDEG-Alb23
% max occupancy [1]: 63.8% | IC50 [1]: 33 nM | IC50 [2]: 20.2 nM

Now from value to binder:

R0 pH5.5 (human serum albumin [3]): 93.9 RU | koff (human serum albumin [3]): 9.72e-05 s⁻¹ | R0 pH7.4 (human serum albumin [4]): 6.32 RU | koff (human serum albumin [4]): 0.0012 s⁻¹ | R0 5.5/7.4 (human serum albumin [5]): 14.9
B5: TA-Fc-ABDEG-2H11-v12 (Fc fusion)
chain: B2 chain with Y356A
notes: Scaffold as for m24

R0 pH5.5 (human serum albumin [3]): 164 RU | koff (human serum albumin [3]): 0.000135 s⁻¹ | R0 pH7.4 (human serum albumin [4]): 8.24 RU | koff (human serum albumin [4]): 0.0029 s⁻¹ | R0 5.5/7.4 (human serum albumin [5]): 19.9
B6: TA-Fc-ABDEG-2H11-v3 (Fc fusion)
chain: B2 chain with P347A

Kd (human serum albumin [15]): 19000 nM | Kd (human serum albumin [8]): 31400 nM | IC50 [16]: 2.3 nM
B9: ABDEG-30GS-Alb23-SM-A (Fc fusion)
chain 1: DKTHTCPPCPAPELLGGPSVFLFPPKPKDTLYITREPEVTCVVVDVSHEDPEVKFNWYVDGVEVHNAKTKPREEQYNSTYRVVSVLTVLHQDWLNGKEYKCKVSNKALPAPIEKTISKAKGQPREPQVYTLPPSRDELTKNQVSLWCLVKGFYPSDIAVEWESNGQPENNYKTTPPVLDSDGSFFLYSKLTVDKSRWQQGNVFSCSVMHEALKFHYTQKSLSLSPGGGGGSGGGGSGGGGSGGGGSGGGGSGGGGSEVQLLESGGGLVQPGGSLRLSCAASGFTFRSAGMSWVRQAPGKGPEWVSSISGSGSDTLYADSVKGRFTISRDNSKNTLYLQMNSLRPEDTAVYYCTIGGSLSRSSQGTLVTVSSA
chain 2: B7 chain 2

fold lower affinity against parental Alb23 VHH (human serum albumin [19]): ~300 fold
B12: Alb23 F32A VHH fragment (VHH)
VHH: EVQLLESGGGLVQPGGSLRLSCAASGFTFRSAGMSWVRQAPGKGPEWVSSISGSGSDTLYADSVKGRFTISRDNSKNTLYLQMNSLRPEDTAVYYCTIGGSLSRSSQGTLVTVSS
notes: also called Alb23-SM

Reference: patent US20250382388A1 (ARGENX, published 2025)
